Results on 1 molecule are retold here after patent publication EP4818204A1 (Nanjing Leads Biolabs Co., Ltd., dated 2026).

Assay in all cases: ELISA, coated protein, antibody at 4 µg/mL
In general terms: An ELISA detects its analyte on a solid surface through an enzyme-linked reagent.

Assay [1] has as its target human AMH protein (human) (UniProt P03971).
Assay [2] concerns the target human GDF8 protein (human) (UniProt O14793).
A further assay concerns the target T1, human GDF3 protein (human, UniProt Q9NR23 251-364, limits assumed).
T1 construct: Bought
T1 sequence (looked up): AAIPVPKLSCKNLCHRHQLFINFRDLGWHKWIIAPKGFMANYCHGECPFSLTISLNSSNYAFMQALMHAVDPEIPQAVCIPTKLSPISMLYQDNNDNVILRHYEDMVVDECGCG

The target of another assay is T2, human GDF2 protein (human, UniProt Q9UK05 320-429).
T2 construct: Bought
T2 sequence (looked up): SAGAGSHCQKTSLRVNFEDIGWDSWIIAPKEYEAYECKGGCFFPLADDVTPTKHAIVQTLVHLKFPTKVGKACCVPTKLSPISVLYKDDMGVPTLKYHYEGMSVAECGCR

The target of another assay is T3, Human GDF15 protein (human, UniProt Q99988 197-308).
T3 construct: Natural GDF15 is said to be a disulfide-linked homodimer; also called Human-GDF15-his
T3 sequence: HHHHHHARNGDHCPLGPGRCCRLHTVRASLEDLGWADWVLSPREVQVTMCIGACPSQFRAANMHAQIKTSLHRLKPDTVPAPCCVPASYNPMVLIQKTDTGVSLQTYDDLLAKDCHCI

B1: Hu19C4C7 (antibody, human IgG1, kappa)
heavy: QVQLVQSGAEVKKPGSSVKVSCKASGYSFTGYIMNWVRQAPGQSLEWMGDIDPYYGGPNYNQKFQGRVTITVDKSTSTAYMELSSLRSEDTAVYYCSRRDYNYGSFAYWGQGTLVTVSSASTKGPSVFPLAPSSKSTSGGTAALGCLVKDYFPEPVTVSWNSGALTSGVHTFPAVLQSSGLYSLSSVVTVPSSSLGTQTYICNVNHKPSNTKVDKKVEPKSCDKTHTCPPCPAPEAAGAPSVFLFPPKPKDTLMISRTPEVTCVVVDVSHEDPEVKFNWYVDGVEVHNAKTKPREEQYNSTYRVVSVLTVLHQDWLNGKEYKCKVSNKALPAPIEKTISKAKGQPREPQVYTLPPSREEMTKNQVSLTCLVKGFYPSDIAVEWESNGQPENNYKTTPPVLDSDGSFFLYSKLTVDKSRWQQGNVFSCSVMHEALHNHYTQKSLSLSPGK
light: QIVLTQSPATLSLSPGERATLSCRASSSVNYMHWYQQKPGQAPRPLIYATSNLATGIPARFSGSGSGTDYTLTISSLEPEDFAVYYCQQWSDNPPTFGQGTKLEIKRTVAAPSVFIFPPSDEQLKSGTASVVCLLNNFYPREAKVQWKVDNALQSGNSQESVTEQDSKDSTYSLSSTLTLSKADYEKHKVYACEVTHQGLSSPVTKSFNRGEC
notes: Humanized form of murine 19C4C7; human IgG1 constant region with L234A, L235A, G237A and kappa light chain constant region; also called hu19C4C7-IgG1-mut(L234A,L235A,G237A)
Take B1: the OD value (OD 450 nm-620 nm) in assay [1] turned out to be 0.0887; in assay [2], 0.0505. Also, the OD value with human GDF3 protein amounted to 0.0862 OD 450 nm-620 nm; with human GDF2 protein, 0.0616 OD 450 nm-620 nm; with Human GDF15 protein it was 2.47 OD 450 nm-620 nm.
